According to patent US20240150440A1 (LUMEN BIOSCIENCE, published 2024):

B1: PP1147 MBP-5HVZ-PAPA-R5a-B7-H6 (VHH)
VHH: QVQLVESGGGLVQPGGSLRLSCAASGAFFSYGAIHWFRQAPGKQREEVAAITSGGSTGYADSVKGRFTISRDNAKNTVYLQMNSLKPEDTAVYYCNAGVVWLPSNAAYNLWGQGTQVTVSS
notes: Form: Dimer
B2: PP1146 MBP-5HVZ-PAPA-R2d-D3-H6 (VHH)
VHH: QVQLVESGGGLVQPGGSLRLSCAASGHIFSINNAAWVRQAPGKSREGVATIHSGGGTYYSDSVKGRFTISRDNAKNTVYLQMNSLKPEDTAVYYCNAEVSTGAGSRGRVSDVYWGQGTQVTVSS
notes: Form: Dimer
B3: PP1143 MBP-5HVZ-PAPA-R2b-D5-H6 (VHH)
VHH: QVQLVESGGGLVQPGGSLRLSCAASGYADEINMVHWYRQAPGKGREFVAAIASGGSTFYADSVKGRFTISRDNAKNTVYLQMNSLKPEDTAVYYCAAIPRPSLSYAHDYAYWGQGTQVTVSS
notes: Form: Dimer
B4: PP1131 MBP-4B0F-PAPA-R2b-D5-H6 (VHH)
VHH: B3 VHH
notes: Form: Heptamer
B5: PP1155 MPB-scTRP-PAPA-R2b-D5-H6 (VHH)
VHH: B3 VHH
notes: Form: Trimer
B6: PP1100 MBP-5HVZ-PAPA-RN-14-H6 (VHH)
VHH: QVQLVESGGGLVQPGGSLRLSCAASGENFSGNLVHWFRQAPGKAREGVATVTSTGSGYYADSVKGRFTISRDNAKNTVYLQMNSLKPEDTAVYYCAAKHQKGEIPYYDWGQGTQVTVSS
notes: Form: Dimer
B7: PP1148 MBP-5HVZ-PAPA-R5a-C5-H6 (VHH)
VHH: QVQLVESGGGLVQPGGSLRLSCAASGDIFSINALHWFRQAPGKQREEVAAITSGGSTGYADSVKGRFTISRDNAKNTVYLQMNSLKPEDTAVYYCAAQQARGGLDSDYWGQGTQVTVSS
notes: Form: Dimer
B8: PP1136 MBP-4B0F-PAPA-R5a-C5-H6 (VHH)
VHH: B7 VHH
notes: Form: Heptamer
B9: PP1149 MBP-5HVZ-PAPA-R5a-E5-H6 (VHH)
VHH: QVQLVESGGGLVQPGGSLRLSCAASGYDFDILRMAWFRQAPGKEREMVAAITSAESVNYEDSVKGRFTISRDNAKNTVYLQMNSLKPEDTAVYYCATYDYTDDYGYASWGQGTQVTVSS
notes: Form: Dimer
B10: PP1152 MBP-5HVZ-PAPA-R5d-B6-H6 (VHH)
VHH: QVQLVESGGGLVQPGGSLRLSCAASGRILAANIVHWYRQAPGKEREGVAGITSGGGSYYADSVKGRFTISRDNAKNTVYLQMNSLKPEDTAVYYCNALGLGQSSLYRSADPYDSWGQGTQVTVSS
notes: Form: Dimer
B11: PP1151 MBP-5HVZ-PAPA-R5d-B5-H6 (VHH)
VHH: QVQLVESGGGLVQPGGSLRLSCAASGSRDSIVAMHWYRQAPGKGREGVAGITSRWVTYYADSVKGRFTISRDNAKNTVYLQMNSLKPEDTAVYYCNAPVYYDTEWYDIWGQGTQVTVSS
notes: Form: Dimer
B12: PP935 MBP-5HVZ-S3b-E11-H6 (VHH)
VHH: QVQLVESGGGLVQPGGSLRLSCAASGDIYSQSAMAWYRQAPGKEREFVAAITTTGSRSYKDSVKGRFTISRDNAKNTVYLQMNSLKPEDTAVYYCAAFAVRSSSVSDAYDYWGQGTQVTVSS
notes: Form: Dimer
B13: PP1103 MBP-5HVZ-PAPA-RN-18-H6 (VHH)
VHH: QVQLVESGGGLVQPGGSLRLSCAASGYYFQIVAMHWYRQAPGKEREGVAGITSTGSTYYGDSVKGRFTISRDNAKNTVYLQMNSLKPEDTAVYYCNAVSTDAQGAAEYWGQGTQVTVSS
notes: Form: Dimer
B14: PP1897 Cerberbody (3-S3b-C8) (other, not shown: large carriers)
chain 1: QVQLVESGGGLVQPGGSLRLSCAASGSIENIERMHWYRQAPGKQRELVAVIDSGGTTRYADSVKGRFTISRDNAKNTVYLQMNSLKPEDTAVYYCAAVWLTNAESTQEYWGQGTQVTVSSHHHHHH
chain 2: QVQLVESGGGLVQPGGSLRLSCAASGSIENIERMHWYRQAPGKQRELVAVIDSGGTTRYADSVKGRFTISRDNAKNTVYLQMNSLKPEDTAVYYCAAVWLTNAESTQEYWGQGTQVTVSSTVILEYAHRLSQDILSDALQQWASHHHHHHHH
B15: MBP-5HVZ-R5D-B6-H6 (VHH)
VHH: B10 VHH
notes: dimer
B16: MBP-5HVZ-R5D-B5-H6 (VHH)
VHH: B11 VHH
notes: dimer
B17: PP848 MBP-R5E-G2-H6 (VHH)
VHH: QVQLVESGGGLVQPGGSLRLSCAASGTIKSINAMHWFRQAPGKAREFVASIGSNGAKSYSDSVKGRFTISRDNAKNTVYLQMNSLKPEDTAVYYCTALITVAESDDYDYWGQGTQVTVSS
notes: Form: Monomer
B18: PP847 MBP-R5E-D1-H6 (VHH)
VHH: QVQLVESGGGLVQPGGSLRLSCAASGFEFSTSAMHWYRQAPGKQREWVARITSGGSDNYGDSVKGRFTISRDNAKNTVYLQMNSLKPEDTAVYYCAAYVGTDNYGYDYWGQGTQVTVSS
notes: Form: Monomer
B19: MBP-R2B-D5-H6 (VHH)
VHH: B3 VHH
notes: monomer
B20: dimeric VHH (VHH-5HVZ-MBP) R2B-E6 (VHH)
VHH: QVQLVESGGGLVQPGGSLRLSCAASGGVTRGNAMAWYRQAPGKQREIVAAIDNGGSHAYGDSVKGRFTISRDNAKNTVYLQMNSLKPEDTAVYYCAVFPDHDSEQASIDRVYWGQGTQVTVSS

Each binder was assayed against T1, SARS-CoV-2 spike protein on pseudotyped lentivirus (Wuhan Reference Pseudovirus) (SARS-CoV-2, UniProt P0DTC2 14-1273) (assay: cell-based or functional assay).
For B1, the “Pseudovirus inhibition IC50 [Cont. 6]” value was 0.44 nM.

Molecular target: T1, SARS-CoV-2 spike protein on pseudotyped …
Test: cell-based or functional assay
Remark: another data set of the same source
B2 was tested, and the “Pseudovirus neutralization IC50” value was 36.2 nM.
In the case of B3, the “Pseudovirus neutralization IC50” value is reported as 0.301 nM.
In the case of B4, the “Pseudovirus neutralization IC50” value is reported as 0.93 nM.
For B5, the “Pseudovirus neutralization IC50” value was 0.634 nM.
In the case of B6, the “Pseudovirus neutralization IC50” value is reported as 6.95 nM.
For B7, the “Pseudovirus neutralization IC50” value was 15.7 nM.
For B8, the “Pseudovirus neutralization IC50” value was 0.05 nM.
For B9, the “Pseudovirus neutralization IC50” value was 37.3 nM.
With B1 the “Pseudovirus neutralization IC50” value was 12.3 nM.
B10 was tested, and the “Pseudovirus neutralization IC50” value was 3.87 nM.
B11 was tested, and the “Pseudovirus neutralization IC50” value was 15.3 nM.
With B12 the “Pseudovirus neutralization IC50” value was 34.2 nM.

What follows are binders tested against SARS-CoV-2 Gamma Variant spike protein on pseudotyped lentivirus (SARS-CoV-2 Gamma variant) (assay: cell-based or functional assay).
For B2, the “Pseudovirus neutralization IC50” value was 6.62 nM.
In the case of B3, the “Pseudovirus neutralization IC50” value is reported as 3.13 nM.

Each binder was assayed against SARS-CoV-2 Delta Variant spike protein on pseudotyped lentivirus (SARS-CoV-2 Delta variant) (assay: cell-based or functional assay).
B2 was tested, and the “Pseudovirus neutralization IC50” value was 4.17 nM.
For B7, the “Pseudovirus neutralization IC50” value was 0.53 nM.
For B13, the “Pseudovirus neutralization IC50” value was 2.49 nM.
B14 was tested, and the “Pseudovirus neutralization IC50” value was 0.09 nM.
In the case of B1, the “Pseudovirus neutralization IC50” value is reported as 1.13 nM.

Molecular target: T1, SARS-CoV-2 spike protein on pseudotyped …
Test: cell-based or functional assay
Remark: another data set of the same source
For B2, the “Pseudovirus inhibition IC50 [Cont. 1]” value was 77 nM.

Molecular target: T1, SARS-CoV-2 spike protein on pseudotyped …
Test: cell-based or functional assay
Remark: another data set of the same source
For B7, the “Pseudovirus inhibition IC50 [Cont. 2]” value was 4.7 nM.
B8 was tested, and the “Pseudovirus inhibition IC50 [Cont. 2]” value was 0.35 nM.
With B9 the “Pseudovirus inhibition IC50 [Cont. 2]” value was 74.7 nM.

Molecular target: T1, SARS-CoV-2 spike protein on pseudotyped …
Test: cell-based or functional assay
Remark: another data set of the same source
With B10 the “Pseudovirus inhibition IC50 [Cont. 4]” value was 0.85 nM.
For B15, the “Pseudovirus inhibition IC50 [Cont. 4]” value was 3.26 nM.
With B11 the “Pseudovirus inhibition IC50 [Cont. 4]” value was 43.7 nM.
In the case of B16, the “Pseudovirus inhibition IC50 [Cont. 4]” value is reported as 3.25 nM.

These binders were tested against T2, recombinant SARS-CoV-2 RBD with C-terminal AviTag (SARS-CoV-2, UniProt P0DTC2 319-541) (assay: ELISA, competition with coated ACE2-Fc for RBD [Cont. 5]).
In the case of B17, the IC50 is reported as 2.1 nM.
For B18, the IC50 was 2.9 nM.

Molecular target: T1, SARS-CoV-2 spike protein on pseudotyped …
Test: cell-based or functional assay
Remark: another data set of the same source
In the case of B6, the “Pseudovirus inhibition IC50 [Cont. 8]” value is reported as 13.9 nM.
B12 was tested, and the “Pseudovirus inhibition IC50 [Cont. 8]” value was 68.4 nM.

Molecular target: T1, SARS-CoV-2 spike protein on pseudotyped …
Test: cell-based or functional assay
Remark: another data set of the same source
B3 was tested, and the “Pseudovirus inhibition IC50” value was 0.6 nM.
In the case of B19, the “Pseudovirus inhibition IC50” value is reported as 176 nM.
For B4, the “Pseudovirus inhibition IC50” value was 0.89 nM.
B5 was tested, and the “Pseudovirus inhibition IC50” value was 1.9 nM.
For B20, the “Pseudovirus inhibition IC50” value was 358 nM.

Each binder was assayed against T2, recombinant SARS-CoV-2 RBD with … (assay: ELISA, competition with coated ACE2-Fc for RBD [Cont. 4]).
B15 gave an IC50 of 15.7 nM.
B16 was tested, and the IC50 was 53.7 nM.

Molecular target: T1, SARS-CoV-2 spike protein on pseudotyped …
Test: cell-based or functional assay
Remark: another data set of the same source
With B2 the “infectivity % under 10 ug/mL VHH treatment” value (shortened to “infectivity %”) was 32.8%.
For B17, the “infectivity %” value was 81.9%.
B3 was tested, and the “infectivity %” value was 0.09%.
In the case of B4, the “infectivity %” value is reported as -0.01%.
With B5 the “infectivity %” value was 0.01%.
In the case of B6, the “infectivity %” value is reported as 17.2%.
With B7 the “infectivity %” value was 5.95%.
For B8, the “infectivity %” value was 1.53%.
For B13, the “infectivity %” value was 57.6%.
B9 was tested, and the “infectivity %” value was 25.5%.
With B1 the “infectivity %” value was 1.79%.
In the case of B10, the “infectivity %” value is reported as 4.64%.
B11 was tested, and the “infectivity %” value was 35.6%.
For B12, the “infectivity %” value was 48.9%.
In the case of B18, the “infectivity %” value is reported as 77.1%.

The binders below were run against T3, SARS-CoV-2 Delta Variant RBD (SARS-CoV-2 Delta variant) (assay: ELISA, RBD coated).
T3 construct: domain: RBD; coated on ELISA plates
In the case of B6, the EC50 is reported as 46.5 nM.
For B7, the EC50 was 0.22 nM.
In the case of B13, the EC50 is reported as 2.69 nM.
Binder B1 has an EC50 of 0.49 nM.
In the case of B12, the EC50 is reported as 151 nM.

These binders were tested against T4, SARS-CoV-2 Beta Variant RBD (SARS-CoV-2 Beta variant) (assay: ELISA, RBD coated).
T4 construct: domain: RBD; coated on ELISA plates
Binder B7 has an EC50 of 30.5 nM.
Work on B13 yielded an EC50 of 227 nM.
B9 gave an EC50 of 58 nM.
B12 showed an EC50 of 343 nM.

Each binder was assayed against T5, SARS-CoV-2 Alpha Variant RBD (SARS-CoV-2 Alpha variant) (assay: ELISA, RBD coated).
T5 construct: domain: RBD; coated on ELISA plates
B6 gave an EC50 of 0.35 nM.
For B7, the EC50 was 0.33 nM.
B13 was tested, and the EC50 was 1.45 nM.
B9 gave an EC50 of 3.01 nM.
With B1 the EC50 was 0.33 nM.
With B12 the EC50 was 0.47 nM.

What follows are binders tested against T6, SARS-CoV-2 Gamma Variant RBD (SARS-CoV-2 Gamma variant) (assay: ELISA, RBD coated).
T6 construct: domain: RBD; coated on ELISA plates
In the case of B7, the EC50 is reported as 9.06 nM.
Work on B13 yielded an EC50 of 92.8 nM.
B9 was tested, and the EC50 was 134 nM.
Binder B12 has an EC50 of 167 nM.
